Substrate in the data set: CC1=CC(O/C=C(C)\C=C\C2=C(C)CCCC2(C)C)OC1=O
The data set can be described thus: LC-MS/MS of BSB formed by yeast microsomes, Michaelis-Menten fit. In kind it is biochemical, Marchantia paleacea. Particulars: rac-CL 0.25 to 33 μM, NADPH 500 μM, 28 °C, 10 min, microsomes of WAT11 yeast, overall two-step conversion CL to BSB via CLA.

The record followed here is publication PMC9270392, “An ancestral function of strigolactones as symbiotic rhizosphere signals” (Nature Communications, 2022).

B1: MpaMAX1 (Marchantia paleacea subsp. diptera) (protein)
chain: MITSMEGWTGVGALGSLVFMVVIMVYYFYPTWKVRHIPVPPYTWFLGHIPLLTKHQALCWTMLAKDYGPMYRFHVGRQPMVMVTDAELCRQVGLKLFKQVPNRSNPAMIEGSSVLKKALFFSRDEQWSGMKSILQPLFHSDKMNNYTPIMTQIVDELLERLRSVKEGEDVNISRLFQRLTLDVIGEVAFGIKFGLVLETPGPDEWLVQTTVKSIDALRMDAGAGVPLSTIVGTFFPILQKPFRSLLRMIPGTPEWVADGSDHALKLRLRQIQQEREELMRRNGSVSRVDSLSLLLNSSKLNKQNGKLLTQDYIGALTYELTLVGSETSSVTLSMLTYLLALHPECERKMLAEIDAFGPRDLPITTEDLETKFPYVDMVIKETMRKHTTTPVVAREASEDIELGGYHLPKGTWVWLVLEALQMNPKDFPEPEEFRPERFDENCDEAKTRHPYAFLPFGVGPRSCLGKRFAAQEVKLTVVRLYQNFTFTLSPLTKVPLETQFGIVVRPKHGVCVRVHPRWTRL
notes: cDNA in pYeDP60, expressed in yeast WAT11 (Saccharomyces cerevisiae); microsomal fraction
On to B1, for which the Michaelis constant (Km) (in general, the concentration of substrate that gives half-maximal velocity) stood at 4.78 ± 1.22 µM.
